This is an account of results in the Human Domainome abundance scans (Beltran et al. 2025).

First the molecules themselves.
B1: Connector enhancer of kinase suppressor of ras 2, residues 9 to 71; numbered along this chain, Q8WXI2 (parent)
chain: SKWSPSQVVDWMKGLDDCLQQYIKNFEREKISGDQLLRITHQELEDLGVSRIGHQELILEAVD

± gives the uncertainty stated by the source.

This series covers variants of B1. The series is described as follows: abundance fitness (aPCA) (normalised: wild type 0, dead -1); higher = more abundant; growth selection in yeast, the domain comes from the species named. The settings on record: Homo sapiens.
With Q42E, the abundance fitness was -0.119 ± 0.034.
Regarding Q42L, the abundance fitness is -0.378 ± 0.025.
In the case of Q42D, the abundance fitness is -0.348 ± 0.046.
For the variant Q42K, the abundance fitness was 0.002 ± 0.051.
As to Q42N, the abundance fitness was -0.228 ± 0.044.
Then Q42G, with -0.193 ± 0.028.
Turning to L44T, the abundance fitness is -0.781 ± 0.05.
As for L44G, the abundance fitness was -0.804 ± 0.047.
Consider L44W, for which the abundance fitness was -0.964 ± 0.06.
Then L44Y, with -0.9 ± 0.086; and Q55L, with -0.948 ± 0.041.
Then Q55R, with 0.061 ± 0.024; and Q55S, with -0.57 ± 0.034.
The value for Q55K was -0.051 ± 0.034; that for Q55H was -0.861 ± 0.052.
In the case of G53M, the abundance fitness was -0.009 ± 0.049.
On to G53A, for which the abundance fitness stood at 0.037 ± 0.033.
The value for G53H was -0.015 ± 0.048; that for G53R was 0.046 ± 0.027.
Regarding D10T, the abundance fitness was -0.18 ± 0.027.
As for D10I, the abundance fitness was -0.258 ± 0.042.
Turning to D10V, the abundance fitness was -0.327 ± 0.028.
In the case of D10K, the abundance fitness is -0.161 ± 0.039.
For the variant E56I, the abundance fitness was -0.102 ± 0.099.
For the variant E56W, the abundance fitness was -0.362 ± 0.041.
On to E56T, for which the abundance fitness is -0.077 ± 0.033.
For the variant E56K, the abundance fitness was 0.041 ± 0.037.
Regarding E56D, the abundance fitness is -0.011 ± 0.045.
The value for E56A was -0.138 ± 0.042; that for W11I was -1 ± 0.11.
The value for W11A was -0.95 ± 0.051; that for W11S was -0.782 ± 0.036.
On to W11R, for which the abundance fitness is -0.716 ± 0.024.
The value for W11Y was -0.425 ± 0.047; that for V9T was -0.11 ± 0.035.
As to V9K, the abundance fitness was -0.334 ± 0.044.
Regarding V9R, the abundance fitness is -0.268 ± 0.025.
V9Y: the abundance fitness is -0.757 ± 0.076.
Consider M12A, for which the abundance fitness was -0.658 ± 0.037.
Then M12P, with -1 ± 0.068; and M12Y, with -0.386 ± 0.051; and D16S, with -0.402 ± 0.022.
Consider D16R, for which the abundance fitness was -0.631 ± 0.025.
The value for D16H was -0.358 ± 0.033; that for D16P was -0.047 ± 0.026; that for D16C was -0.72 ± 0.041.
The value for D16W was -0.527 ± 0.031; that for D16K was -0.632 ± 0.038.
For the variant T40I, the abundance fitness was -0.893 ± 0.093.
On to T40F, for which the abundance fitness is -1.21 ± 0.37.
Then T40M, with -0.907 ± 0.082.
With T40W, the abundance fitness is -0.957 ± 0.07.
In the case of T40D, the abundance fitness is -0.327 ± 0.091.
For V62P, the abundance fitness is -0.779 ± 0.077.
Then V62I, with -0.047 ± 0.044; and V62Y, with -1.02 ± 0.11.
For V62K, the abundance fitness is -0.392 ± 0.12.
As to V62G, the abundance fitness is -0.802 ± 0.046.
Take V62A: the abundance fitness was -0.335 ± 0.04.
As to V62M, the abundance fitness was -0.552 ± 0.043.
Regarding V62D, the abundance fitness was -0.822 ± 0.088.
The value for N25M was -0.014 ± 0.045; that for N25L was -0.089 ± 0.026.
Regarding N25E, the abundance fitness is -0.168 ± 0.037.
Take N25C: the abundance fitness is -0.066 ± 0.03.
For N25I, the abundance fitness is -0.088 ± 0.083.
N25W: the abundance fitness was -0.443 ± 0.03.
Turning to I23R, the abundance fitness is -0.18 ± 0.021.
For I23G, the abundance fitness is -0.344 ± 0.024.
Then I23K, with -0.361 ± 0.058.
Then I23S, with -0.247 ± 0.029; and I23A, with 0.006 ± 0.027.
With H41C, the abundance fitness was -0.157 ± 0.054.
Take H41D: the abundance fitness was -0.229 ± 0.052.
Turning to H41Y, the abundance fitness was -0.075 ± 0.049.
As for G48I, the abundance fitness is -1.29 ± 0.33.
For the variant G48W, the abundance fitness is -1.07 ± 0.071.
On to L19M, for which the abundance fitness was -0.2 ± 0.044.
Take L19E: the abundance fitness is -0.74 ± 0.049.
Turning to L19S, the abundance fitness is -0.642 ± 0.037.
Consider L19Q, for which the abundance fitness was -0.604 ± 0.047.
The value for L19Y was -0.816 ± 0.085.
For the variant L19R, the abundance fitness was -0.763 ± 0.036.
With C18T, the abundance fitness is -0.221 ± 0.04.
Consider C18M, for which the abundance fitness was -0.442 ± 0.042.
For the variant C18K, the abundance fitness was -0.301 ± 0.047.
The value for C18I was -0.439 ± 0.061.
Take C18D: the abundance fitness is 0.006 ± 0.043.
Consider C18P, for which the abundance fitness was -0.239 ± 0.033.
The value for E29K was 0.02 ± 0.05.
The value for E29H was 0.003 ± 0.044.
For the variant E29L, the abundance fitness is -0.179 ± 0.024.
E29M: the abundance fitness was -0.054 ± 0.041.
As to E29N, the abundance fitness was -0.143 ± 0.057.
Turning to S32Y, the abundance fitness was -0.264 ± 0.056.
S32C: the abundance fitness was -0.029 ± 0.047.
Consider S32F, for which the abundance fitness was -0.493 ± 0.041.
On to S32R, for which the abundance fitness was -0.142 ± 0.022.
In the case of S32G, the abundance fitness is -0.074 ± 0.022.
The value for D63P was -0.792 ± 0.14; that for D63A was -0.001 ± 0.045.
Turning to D63N, the abundance fitness was -0.024 ± 0.06.
Consider D63Y, for which the abundance fitness is -0.096 ± 0.051.
On to W3I, for which the abundance fitness was -0.053 ± 0.28.
With W3R, the abundance fitness is -0.498 ± 0.04.
Regarding W3N, the abundance fitness was -0.545 ± 0.083.
Consider W3Y, for which the abundance fitness is -0.6 ± 0.084.
The value for D17F was -0.181 ± 0.076; that for D17A was -0.137 ± 0.025; that for D17N was -0.075 ± 0.057.
Regarding D17Q, the abundance fitness was -0.091 ± 0.038.
Turning to D17G, the abundance fitness is -0.104 ± 0.032.
Regarding L47P, the abundance fitness is -0.762 ± 0.048.
As for L47F, the abundance fitness was -0.612 ± 0.072.
The value for L47H was -0.785 ± 0.08.
Then L47V, with -0.423 ± 0.025; and L47G, with -0.857 ± 0.038.
As to L47D, the abundance fitness is -0.857 ± 0.061.
As to L47T, the abundance fitness is -0.805 ± 0.049.
On to L47S, for which the abundance fitness was -0.813 ± 0.041.
As to I31R, the abundance fitness was -0.873 ± 0.041.
The value for I31E was -0.827 ± 0.051; that for I31A was -0.914 ± 0.043.
Take I31H: the abundance fitness is -0.71 ± 0.069.
Then I31M, with -0.361 ± 0.028; and I31C, with -0.99 ± 0.1; and I31P, with -0.744 ± 0.061.
With S4P, the abundance fitness was -0.393 ± 0.057.
The value for S4T was -0.053 ± 0.047; that for S4Y was -0.491 ± 0.068.
Turning to S4W, the abundance fitness is -0.958 ± 0.075.
As to S4V, the abundance fitness is -0.496 ± 0.025.
For S4Q, the abundance fitness was -0.676 ± 0.056.
Q21I: the abundance fitness was -0.088 ± 0.043.
Then Q21C, with -0.022 ± 0.048.
As to Q21H, the abundance fitness was -0.257 ± 0.04.
Then Q21P, with 0.038 ± 0.035; and Q21E, with -0.076 ± 0.037; and Q21Y, with -0.459 ± 0.066.
In the case of Q21D, the abundance fitness is -0.095 ± 0.035.
As for G14A, the abundance fitness is -0.41 ± 0.034.
G14F: the abundance fitness was -1.06 ± 0.13.
Then G14Q, with -0.196 ± 0.047; and G14W, with -0.986 ± 0.1.
The value for G14I was -0.922 ± 0.13; that for D34H was -0.168 ± 0.071.
Take D34E: the abundance fitness amounted to 0.055 ± 0.037.
Then D34Q, with -0.031 ± 0.052.
Consider D34F, for which the abundance fitness was -0.281 ± 0.056.
Turning to D34P, the abundance fitness was -0.105 ± 0.031.
Consider D34I, for which the abundance fitness is -0.213 ± 0.055.
On to D34W, for which the abundance fitness is -0.142 ± 0.038.
The value for D34T was -0.118 ± 0.037.
With D34Y, the abundance fitness was -0.12 ± 0.037.
For the variant D34L, the abundance fitness is -0.128 ± 0.025.
Consider S1I, for which the abundance fitness was 0.038 ± 0.057.
For the variant S1K, the abundance fitness was determined as 0.015 ± 0.039.
S1L: the abundance fitness was -0.154 ± 0.036.
Then E60P, with -0.905 ± 0.073; and H54R, with -0.793 ± 0.043.
For H54S, the abundance fitness was -0.766 ± 0.039.
Turning to H54C, the abundance fitness was -0.835 ± 0.07.
Then H54A, with -0.727 ± 0.036; and H54G, with -0.887 ± 0.056; and H54V, with -0.982 ± 0.05.
As to H54T, the abundance fitness is -0.874 ± 0.049.
Regarding H54K, the abundance fitness is -0.843 ± 0.052.
